Measured values from patent publication US7655420B2, “Methods to increase or decrease bone density” (Celltech R & D, Inc., priority 2002, dated 2010).

Columns and labels:
[1] = test system: BMP-6 stimulated alkaline phosphatase activity; assay: BMP-6 stimulated alkaline phosphatase activity in mouse mesenchymal C3H10T1/2 cells; format: cell-based
Experimental: C3H10T1/2 cells (ATCC Deposit No. CCL-226) were plated in 96-well dishes at a density of 25,000 cells per well in complete growth medium (DMEM with high glucose and glutamine supplemented with 10% FCS, 1% penicillin/streptomycin, 0.1 mM non-essential amino acids, 1 mM sodium pyruvate, 55 μM β-mercaptoethanol, and 20 mM HEPES, pH 7.3). C3H10T1/2 cells were used in a short-term (72 hr) assay to determine the effects of human sclerostin protein on BMP-induced ALP activity. Partially purified preparations of bacculovirus-expressed sclerostin protein were prepared in sterile PBS using NAP-5 columns prior to use. Sclerostin protein (0 to 50 μg/ml) or an equal volume of Sf9 conditioned media (control) was pre-incubated with 500 ng/ml BMP-6 for 1 hr prior to addition to cells. For comparison, similar incubations were carried out with anti-BMP-6 antibody and noggin. Cells were harvested 72 hrs later for determination of ALP activity.
To test the specificity of the sclerostin effect, human sclerostin that was synthesized with a FLAG tag, was pre-incubated for 2 hrs at 4° C. with an anti-FLAG antibody coupled to agarose beads. The mixture was then spun down at 10,000×g for 15 minutes at 4° C. and the supernatant treated as “sclerostin protein” in the above assay.

apoptosis genes = assay: Apoptosis Gene Array of hMSC treated with sclerostin; format: cell-based, human
Experimental: In another study, hMSC were treated with vehicle or sclerostin for 6 hrs or 48 hrs. Cells were harvested, RNA prepared and used for the analysis of a commercially available Apoptosis Gene Array (SuperArray, Bethesda, Md.). To further investigate the effects of sclerostin on the apoptosis of hMSC, RNA was harvested from vehicle and sclerostin-treated cells and used the RNA to probe a cDNA expression array containing apoptosis genes. The results for vehicle and sclerostin-treated samples were compared and data (corrected for background) were expressed as a ratio of sclerostin to vehicle.

[2] = hMSC, 6 hrs, Anti-apoptotic gene
[3] = hMSC, 48 hrs, Anti-apoptotic gene
[4] = hMSC, 48 hrs, Proapoptotic gene

B1: sclerostin: partially purified baculovirus-expressed human sclerostin protein, SOST gene product (SEQ ID NO:3); also made with a FLAG tag (protein, listed as Homo sapiens)
chain: MQLPLALCLVCLLVHTAFRVVEGQGWQAFKNDATEIIPELGEYPEPPPELENNKTMNRAENGGRPPHHPFETKDVSEYSCRELHFTRYVTDGPCRSAKPVTELVCSGQCGPARLLPNAIGRGKWWRPSGPDFRCIPDRYRAQRVQLLCPGGEAPRARKVRLVASCKCKRLTRFHNQSELKDFGTEAARPQKGRKPRPRARSAKANQAELENAY
modifications: optional FLAG tag
For B1, the “stimulatory effect of BMP-6 on alkaline phosphatase activity (antagonism)” value ([1]; 500 ng/ml BMP-6, 72 hrs) was “antagonized”, the “antagonism of BMP-6 after immuno-depletion with anti-Flag M2 antibody/agarose complex” value ([1]; Flag-tagged sclerostin preparation) was “completely abolished” and the “IC50, decrease of BMP-6 stimulated alkaline phosphatase activity” value ([1]; pre-incubated with 500 ng/ml BMP-6 for 1 hr, 72 hrs) was 10 µg/mL. The “increase in the expression of apoptosis-associated genes and genes involved in cell survival” value (apoptosis genes; hMSC treated for 6 hrs with sclerostin) was 2 to 4 fold, the “Ratio of sclerostin to vehicle, Bruce” value (apoptosis genes; [2]) was 1.45 ± 0.75 and the “Ratio of sclerostin to vehicle, Survivin, IAP2” value (apoptosis genes; [2]) was 1.32 ± 0.48. The “Ratio of sclerostin to vehicle, XIAP” value (apoptosis genes; [2]) was 2.01 ± 0.64, the “Ratio of sclerostin to vehicle, BAX” value (apoptosis genes; hMSC, 6 hrs, Proapoptotic gene) was 1.53 ± 0.2 and the “Ratio of sclerostin to vehicle, Bcl10” value (apoptosis genes; hMSC, 6 hrs, Proapoptotic gene) was 4.09 ± 2.13. The “Ratio of sclerostin to vehicle, Caspase 3” value (apoptosis genes; hMSC, 6 hrs, Proapoptotic gene) was 2.46 ± 0.69, the “Ratio of sclerostin to vehicle, Caspase 4” value (apoptosis genes; hMSC, 6 hrs, Proapoptotic gene) was 1.83 ± 1.12 and the “Ratio of sclerostin to vehicle, Caspase 7” value (apoptosis genes; hMSC, 6 hrs, Proapoptotic gene) was 1.76 ± 0.18. The “Ratio of sclerostin to vehicle, Hrk” value (apoptosis genes; hMSC, 6 hrs, Proapoptotic gene) was 1.59 ± 0.39, the “Ratio of sclerostin to vehicle, Myd88” value (apoptosis genes; hMSC, 6 hrs, Proapoptotic gene) was 1.4 ± 0.31 and the “Ratio of sclerostin to vehicle, Casper” value (apoptosis genes; [3]) was 2.68 ± 0.28. For the same molecule, the “Ratio of sclerostin to vehicle, I-TRAF” value (apoptosis genes; [3]) was 2.05 ± 0.54, the “Ratio of sclerostin to vehicle, Mdm2” value (apoptosis genes; [3]) was 1.66 ± 0.34 and the “Ratio of sclerostin to vehicle, Bak1” value (apoptosis genes; [4]) was 2.36 ± 0.74. The “Ratio of sclerostin to vehicle, Bax” value (apoptosis genes; [4]) was 1.64 ± 0.3, the “Ratio of sclerostin to vehicle, Bcl10” value (apoptosis genes; [4]) was 1.84 ± 0.76 and the “Ratio of sclerostin to vehicle, Blk” value (apoptosis genes; [4]) was 1.83 ± 0.12. The “Ratio of sclerostin to vehicle, Myd88” value (apoptosis genes; [4]) was 2.64 ± 1.3.
